The values that follow come from a protein production outcome set (Wang et al. 2014).

The nature of this data set: label from the status in PepcDB records.
Regarding “MSLLFLAMAPKPKPWVQTEGPEKKKGRQAGREEDPFRSTAEALKAIPAEKRIIRVDPTCPLSSNPGTQVYEDYNCTLNQTNIENNNNKFYIIQLLQDSNRFFTCWNRWGRVGEVGQSKINHFTRLEDAKKDFEKKFREKTKNNWAERDHFVSHPGKYTLIEVQAEDEAQEAVVKVDRGPVRTVTKRVQPCSLDPATQKLITNIFSKEMFKNTMALMDLDVKKMPLGKLSKQQIARGFEALEALEEALKGPTDGGQSLEELSSHFYTVIPHNFGHSQPPPINSPELLQAKKDMLLVLADIELAQALQAVSEQEKTVEEVPHPLDRDYQLLKCQLQLLDSGAPEYKVIQTYLEQTGSNHRCPTLQHIWKVNQEGEEDRFQAHSKLGNRKLLWHGTNMAVVAAILTSGLRIMPHSGGRVGKGIYFASENSKSAGYVIGMKCGAHHVGYMFLGEVALGREHHINTDNPSLKSPPPGFDSVIARGHTEPDPTQDTELELDGQQVVVPQGQPVPCPEFSSSTFSQSEYLIYQESQCRLRYLLEVHL”, the protein production entry was “not failed”. Under “MSLNLTIGTSKFNPPFEVWSGNNSSLYGFDIDLMQEICRRLHATCTFEAYIFDDLFPALKNREVDLVIASMIITDERKKHFIFSLPYMESNSQYITTVDSKISTFDDLHGKKIGVRKGTPYARQVLSENRNNQVIFYELIQDMLLGLSNNQVDASLMDYEAAKYWMASEPYAYKLIGKKYKLIGKKISIGEGYSIMANPDQFVLIKKINKILLEMEADGTYLRLYSEYFEGHHHHHH” stands “not failed”; under “MSLNMFWFLPTHGDGHYLGTEEGSRPVDHGYLQQIAQAADRLGYTGVLIPTGRSCEDAWLVAASMIPVTQRLKFLVALRPSVTSPTVAARQAATLDRLSNGRALFNLVTGSDPQELAGDGVFLDHSERYEASAEFTQVWRRLLQRETVDFNGKHIHVRGAKLLFPAIQQPYPPLYFGGSSDVAQELAAEQVDLYLTWGEPPELVKEKIEQVRAKAAAHGRKIRFGIRLHVIVRETNDEAWQAAERLISHLDDETIAKAQAAFARTDSVGQQRMAALHNGKRDNLEISPNLWAGVGLVRGGAGTALVGDGPTVAARINEYAALGIDSFVLSGYPHLEEAYRVGELLFPLLDVAIPEIPQPQPLNPQGEAVANDFIPRKVAQS”, “not failed”. The result for “MSLNTSIYGLIGEKLGHSHSSYIHKLIFEKVGIKGIYNLFEVPKEKLKESVDTFKIIKCGGLNVTIPYKVEVMKELYEISEKARKIGAVNTLKFSREGISGFNTDYIGFGKMLSKFRVEIKNNICVVLGSGGAARAVLQYLKDNFAKDIYVVTRNPEKTSEIYGEFKVISYDELSNLKGDVIINCTPKGMYPKEGESPVDKEVVAKFSSAVDLIYNPVETLFLKYARESGVKAVNGLYMLVSQAAASEEIWNDISIDEIIVDEIFEVLEEKIKSEGHHHHHH” reads “not failed”; that for “MSLNYEESNLIVFGVGFDGTTSNRPGARFASSSMRKEFYGLETYSPFLDLDLEDYNICDYGDLEISVGSTEQVLKEIYQETYKIVRDSKVPFMIGGEHLVTLPAFKAVHEKYNDIYVIHFDAHTDLREEYNNSKNSHATVIKRIWDIVGDNKIFQFGIRSGTKEEFKFATEEKHTYMEIGGIDTFENIVNMLNGKNIYLTIDLDVLDASVFPGTGTPEPGGVNYREFQEIFKIIKNSNINIVGCDIVELSPDYDTTGVSTVIACKILRELCLIISDKIKEGHHHHHH”, “not failed”; that for “MSLPAFVEALLTPAAYPHAVTTPIQLLQTHISYVFLTGDYAYKVKKPADFGFLNFTTLERRLFYCQEELRLNRRLAPDLYLAVVPIVAVGDRYCVAHPQDLPAGAEVIEYAVQMRQFDQSQLFSHLFAANQVTPHLIESLGKELAHFHRCAATSPRISEFGSPRAIAQVINNCHALAAQFVGRCQSPEQYAAIQAFTDDFLSRRQEWFVRRQAGGKIRECHGDLHLNNICLYNGKVQIFDCIEFNEEFRNIDGIYDAAFLLMDLEFRRRGDLANLFLNTYLEWSGDYEGAVLLPLYLCVRAYIRGNVNALALNDPAISGAEKAQIQATAAAYYGAAYRYTQPRQAKLYMMCGLSGAGKSTRGRRLAQAEQAIQIRSDAVRKHLAHLPLDRRSTDFPEVDLYSDAMTEKTYDQLLAYAELLLPQGQTVILDAKYDRVALRQPVIALAKKLHVPLEIHFCSAPPEELHRRLSARQGDIAEATPDLIATQMASFEPFLPEEEPYVRHVCD”, “failed”. As for “MSLRIAIVGAGALGLYYGALLQRSGEDVHFLLRRDYEAIAGNGLKVFSINGDFTLPHVKGYRAPEEIGPMDLVLVGLKTFANSRYEELIRPLVEEGTQILTLQNGLGNEEALATLFGAERIIGGVAFLCSNRGEPGEVHHLGAGRIILGEFLPRDTGRIEELAAMFRQAGVDCRTTDDLKRARWEKLVWNIPFNGLCALLQQPVNLILARDVSRKLVRGIMLEVIAGANAQGLATFIADGYVDDMLEFTDAMGEYKPSMEIDREEGRPLEIAAIFRTPLAYGAREGIAMPRVEMLATLLEQATGEGHHHHHH”, the protein production result is recorded as “not failed”. On to “MSLRKQSWLWMLLVILSETSATSTLKMFDNSQGMTKAALLAIIILLYCVCYYSLSKAVRHLPVGLAYATWSGTGILLVSTLSIIFYGQHPDIPAIVGMIVIATGIMIMNLFSKMGVDEQPEKLDSSNQSQPLETKIIH”, for which the protein production entry was “failed”. For the sequence “MSLRRLLAVFAVVGMVVIAGCAGGIDNGEPATSGVTEQATTTVATTETAAPTGELVVHQLNVGQGSSTLVVGPDGETLLIDTGDWTDDGEDVIAYLESQGVTRIDHLVTSHPDADHIGGHAAVIEHFETNGDGVGAVYDPGIASSSATYEEYLDAVEAHNVPLYRTQAGDSIPMSGATAQILAPPEGYLANEDRNENSIVVHVQFGASSFLLPGDGETASEEYLVDTYGDRLNSTVLVVGHHGSRSSTSAAFLEAVSPRVAVISSAYESQYGHPHEAVLERLAARSIPTYWTATHGTITFTSNGSAVTVATQQDAPTTATELRSGDPVEPGTGGGLVDRLVIPTAGSGTTPITDPDGTTEPAETTSTSTAGRLDLVEIHADAAGDDAENLNGEYITVEHTGASSLDLSGWTLADAAGHSYTIPEGTVLEPGDQLTIYTGSGTDTATELYWGQSSPVWNNGGDTISLRDATGTTVIEETY”, the protein production entry was “failed”.

For “MSLRRRFCAFLKGMQSPMIFDVKAPILGFETIHKMRLQKIDEIFLRLNSTEENSVVSFTLVNPFALRKYEFEVPTPLKILLELEGAKSVLVANIMVVQTPIELSTVNYLAPLIFNLDKQLMGQVVLDSNKYPHYHLRENILSHTHE”, the protein production result is listed as “failed”. On to “MSLRSKRVLVVEDNPDDIALIRRVLDRKDIHCQLEFVDNGAKALYQVQQAKYDLIILDIGLPIANGFEVMSAVRKPGANQHTPIVILTDNVSDDRAKQCMAAGASSVVDKSSNNVTDFYGRIYAIFSYWLTVNHCQEGHHHHHH”, for which the protein production entry is given as “not failed”. Under “MSLRTKGNAELILQIDAYLPDTYISDQRHKIEIYKKIRQIDNRVNYEELQEELIDRFGEYPDVVAYLLEIGLVKSYLDKVFVQRVERKDNKITIQFEKVTQRLFLAQDYFKALSVTNLKAGIAENKGLMELVFDVQNKKDYEILEGLLIFGESLLEIKESKEKNSEGHHHHHH” stands “not failed”.

As for “MSLRTQLIAVLIDDYSNPWFIDLIQSLSDVLTPKGYRLSVIDSLTSQAGTDPITSALSMRPDGIIIAQDIPDFTVPDSLPPFVIAGTRITQASTHDSVANDDFRGAEIATKHLIDLGHTHIAHLRVGSGAGLRRFESFEATMRAHGLEPLSNDYLGPAVEHAGYTETLALLKEHPEVTAIFSSNDITAIGALGAARELGLRVPEDLSIIGYDNTPLAQTRLINLTTIDDNSIGVGYNAALLLLSMLDPEAPHPEIMHTLQPSLIERGTCAPREGHHHHHH”, the protein production entry is reported as “not failed”. Under “MSLSDDPMASIKLLNLERENSAIAQYQSNIANLKTTLSSQETHLDSVSESLKSMRDIVLWGANGSLTDQDRSGMITELKSYRDSIESSFNAQDEEGHFLFSGTKTDTAALNKSSGAYVVEGNSDVRVVTVAKGVTMDSNMTAQEILDIGGGKNVLNQIDALIAEFEKPSPNFQAEVDASLNAIDDTMANVLGAMTEIGGRHNNLDLMDGAHSENKLFVDKVSGDLSALDYGEGHHHHHH” stands “not failed”; under “MSLSEGTFEVGKNTFLLNGEPFVVKAAEIHYPRIPKEYWEHRIKMCKALGMNTICLYVFWNFHEPEEGRYDFAGQKDIAAFCRLAQENGMYVIVRPGPYVCAEWEMGGLPWWLLKKKDIKLREQDPYYMERVKLFLNEVGKQLADLQISKGGNIIMVQVENEYGAFGIDKPYISEIRDMVKQAGFTGVPLFQCDWNSNFENNALDDLLWTINFGTGANIDEQFKRLKELRPDTPLMCSEFWSGWFDHWGAKHETRSAEELVKGMKEMLDRNISFSLYMTHGGTSFGHWGGANFPNFSPTCTSYDYDAPINESGKVTPKYLEVRNLLGNYLPEGETLPEIPDSIPTIAIPTIKMTEMAVLFDNLPHPKESEDIRTMEAFDQGWGSILYRTSLSASDKEQTLLITEAHDWAQVFLNGKKLATLSRLKGEGVVKLPPLKEGDRLDILVEAMGRMNFGKGIYDWKGITEKVELQSDKGVELVKDWQVYTIPVDYSFARDKQYKQQENAENQPAYYRSTFNLNELGDTFLNMMNWSKGMVWVNGHAIGRYWEIGPQQTLYVPGCWLKKGENEIIILDMAGPSKAETEGLRQPILDVQRGNGAYAHRKMGEGHHHHHH”, “not failed”; under “MSLSEIKHWVFDMDGTLTIAVHDFAAIREALSIPAEDDILTHLAALPADESAAKHAWLLEHERDLAQGSRPAPGAVELVRELAGRGYRLGILTRNARELAHVTLEAIGLADCFAEADVLGRDEAPPKPHPGGLLKLAEAWDVSPSRMVMVGDYRFDLDCGRAAGTRTVLVNLPDNPWPELTDWHARDCAQLRDLLSA”, “not failed”. The result for “MSLSKKTIYIAGLGLIGGSLALGIKRDHPDYEILGYNRSDYSRNIALERGIVDRATGDFKEFAPLADVIILAVPIKQTMAYLKELADLDLKDNVIITDAGSTKREIVEAAERYLTGKNVQFVGSHPMAGSHKSGAIAADVTLFENAYYIFTPTSLTKETTIPELKDILSGLKSRYVEIDAAEHDRVTSQISHFPHLLASGLMEQAADYAQAHEMTNHFAAGGFRDMTRIAESEPGMWASILMTNGPAVLDRIEDFKKRLDHVADLIKAEDESAIWEFFDNGRKKRKEMEIHKKGGVESAFDIFVDVPDREGHHHHHH” reads “not failed”.

Consider “MSLSKPLFIFEMANNHMGNVEHGVALIRAIRESCQGFDFDFGFKLQYRNLDTFIHSSFKGRDDVKYVKRFEETRLQPEQMQKLVAEMKANGFKAICTPFDEESVDLIEAHGIEIIKIASCSFTDWPLLERIARSDKPVVASTAGARREDIDKVVSFMLHRGKDLTIMHCVAEYPTPDDHLHLARIKTLRQQYAGVRIGYSTHEDPDLMEPIMLAVAQGATVFEKHVGLPTDQYGINNYSANPEQVRRWLAAAARALAMLGDGEDDAVSETEQASLRSLRRGVFATRPVAAGEALTADNVSFAFPPVEGQLTANEWSKYVRYTAKTPIAADAPVMAADLEPVNEGHHHHHH”, for which the protein production entry is on record as “not failed”. In the case of “MSLSKVFTIGEILVEIMASKIGQPFDQPGIWNGPYPSGAPAIFIDQVTRLGVPCGIISCVGNDGFGDINIHRLAADGVDIRGISVLPLEATGSAFVTYHNSGDRDFIFNIKNAACGKLSAQHVDENILKDCTHFHIMGSSLFSFHMVDAVKKAVTIVKANGGVISFDPNIRKEMLDIPEMRDALHFVLELTDIYMPSEGEVLLLSPHSTPERAIAGFLEEGVKEVIVKRGNQGASYYSANEQFHVESYPVEEVDPTGAGDCFGGAWIACRQLGFDAHRALQYANACGALAVTRRGPMEGTSRLMEIETFIQRHDMSIREAAQEGHHHHHH”, the protein production entry is “not failed”.
